Measurements as given in the supplement of paper PMC11196671.
± gives the standard deviation of the averaged measurements.

Assay: BHET released, HPLC; higher = more BHET released; extreme values may be limits of the assay
Details: 24 h
Protocol: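 Purified PET hydrolases, 2.5 ug enzyme on 3.5 mg amorphous PET film (aFilm) or crystalline PET powder (cryPow) in 0.5 mL of 50 mM buffer (NaCitrate pH 4.5/5.5, NaPhosphate 6.5/7.5, glycine 8.5/9.5) at 60 or 70 C with shaking for 24 h. Total aromatic product by UV-Vis (260/280 nm, blank-subtracted, normalised per mg enzyme) and individual TPA, MHET, BHET concentrations by UHPLC-DAD at 240 nm; duplicate reactions.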

[1] = PET substrate: aFilm, 60 °C, pH 4.5
[2] = PET substrate: aFilm, 60 °C, pH 5.5
[3] = PET substrate: aFilm, 60 °C, pH 6.5
[4] = PET substrate: aFilm, 60 °C, pH 7.5
[5] = PET substrate: aFilm, 60 °C, pH 8.5
[6] = PET substrate: aFilm, 60 °C, pH 9.5
[7] = PET substrate: aFilm, 70 °C, pH 4.5
[8] = PET substrate: aFilm, 70 °C, pH 5.5
[9] = PET substrate: aFilm, 70 °C, pH 6.5
[10] = PET substrate: aFilm, 70 °C, pH 7.5
[11] = PET substrate: aFilm, 70 °C, pH 8.5
[12] = PET substrate: aFilm, 70 °C, pH 9.5
[13] = PET substrate: cryPow, 60 °C, pH 4.5
[14] = PET substrate: cryPow, 60 °C, pH 5.5
[15] = PET substrate: cryPow, 60 °C, pH 6.5
[16] = PET substrate: cryPow, 60 °C, pH 7.5
[17] = PET substrate: cryPow, 60 °C, pH 8.5
[18] = PET substrate: cryPow, 60 °C, pH 9.5
[19] = PET substrate: cryPow, 70 °C, pH 4.5
[20] = PET substrate: cryPow, 70 °C, pH 5.5
[21] = PET substrate: cryPow, 70 °C, pH 6.5
[22] = PET substrate: cryPow, 70 °C, pH 7.5
[23] = PET substrate: cryPow, 70 °C, pH 8.5
[24] = PET substrate: cryPow, 70 °C, pH 9.5

Sequence | BHET released [1] [mM] | BHET released [2] [mM] | BHET released [3] [mM] | BHET released [4] [mM] | BHET released [5] [mM] | BHET released [6] [mM] | BHET released [7] [mM] | BHET released [8] [mM] | BHET released [9] [mM] | BHET released [10] [mM] | BHET released [11] [mM] | BHET released [12] [mM] | BHET released [13] [mM] | BHET released [14] [mM] | BHET released [15] [mM] | BHET released [16] [mM] | BHET released [17] [mM] | BHET released [18] [mM] | BHET released [19] [mM] | BHET released [20] [mM] | BHET released [21] [mM] | BHET released [22] [mM] | BHET released [23] [mM] | BHET released [24] [mM]
ADNPYQRGPDPTNASIEAATGPFAVGTQPIVGASGFGGGQIYYPTDTSQTYGAVVIVPGFISVWAQLAWLGPRLASQGFVVIGIETSTITDLPDPRGDQALAALDWATTRSPVRSRIDRTRLAAAGWSMGGGGLRRAACQRPSLKAIVGMAPWNTEKNWSCVTVPTLFFGGSSDAVASPNDHAKPFYNSITRAEKDYIELCNADHFFPTSANTTMAKYFISWLKRWVDNDTRYTQFLCPGPSTGLFAPVCASMNTCPF [CaPETaseM9] | 0 | 0 | 0 | 0 | 0 | 0 | 0 | 0 | 0 | 0 | 0 | 0 | 0.00607 ± 0.00089 | 0 | 0.00315 ± 0.0045 | 0 | 0 | 0 | 0 | 0 | 0 | 0 | 0 | 0
ANPYERGPNPTDALLEARSGPFSVSEENVSRLSASGFGGGTIYYPRENNTYGAVAISPGYTGTEASIAWLGERIASHGFVVITIDTITTLDQPDSRAEQLNAALNHMINRASSTVRSRIDSSRLAVMGHSMGGGGSLRLASQRPDLKAAIPLTPWHLNKNWSSVTVPTLIIGADLDTIAPVATHAKPFYNSLPSSISKAYLELDGATHFAPNIPNKIIGKYSVAWLKRFVDNDTRYTQFLCPGPRDGLFGEVEEYRSTCPF [TfCut2] | 0 | 0.00214 ± 0.003 | 0.00244 ± 0.0035 | 0.00625 ± 0.00089 | 0 | 0 | 0 | 0 | 0 | 0 | 0 | 0 | 0 | 0 | 0 | 0.0022 ± 0.0031 | 0 | 0 | 0 | 0 | 0 | 0 | 0 | 0
QDNPYERGPDPTEDSIEAIRGPFSVATERVSSFASGFGGGTIYYPRETDEGTFGAVAVAPGFTASQGSMSWYGERVASHGFIVFTIDTNTRLDAPGQRGRQLLAALDYLVERSDRKVRERLDPNRLAVMGHSMGGGGSLEATVMRPSLKASIPLTPWHLDKTWGQVQVPTFIIGAELDTIAPVSTHAKPFYESLPSSLPKAYMELCGATHFAPNIPNTTIAKYVISWLKRFVDEDTRYSQFLCPNPTDRAICEYRSTCPY [Cut190*SS] | 0 | 0 | 0.00205 ± 0.0029 | 0.0117 ± 0.00081 | 0 | 0 | 0 | 0 | 0 | 0.00861 ± 0.00034 | 0 | 0 | 0 | 0.00623 ± 0.0018 | 0.00767 ± 0.0011 | 0.0058 ± 0.00068 | 0 | 0 | 0 | 0 | 0 | 0 | 0 | 0
QTNPYARGPDPTAASLEASAGPFTVRSFTVSRPSGYGAGTVYYPTNAGGTVGAIAIVPGYTARQSSIKWWGPRLASHGFVVITIDTNSTLDQPESRSSQQMAALEQVASLNGTSSSPIYGKVDTARMGVMGWSMGGGGSLISACNNPSLKAAVVQAPWHSSTNFSCVTVPTLIFACENDSIAPVNSSALPIYDSMSENAKQFLEICGGSHSCANTGNSDQALIGKKGVAWMKRFMDNDTRYSTFACENPNSTRVCDFRTANCS [Z1-PETase] | 0 | 0 | 0 | 0 | 0 | 0 | 0 | 0 | 0 | 0 | 0 | 0 | 0 | 0 | 0.00328 ± 0.0046 | 0 | 0 | 0 | 0 | 0 | 0 | 0 | 0 | 0
QTNPYARGPNPTAASLEASAGPFTVRSFTVARPVGYGAGTVYYPTNAGGTVGAIAIVPGYTATQSSINWWGPRLASHGFVVITIDTNSTLDKPESRSSQQMAALRQVASLNGTSSSPIYGKVDTARGGVMGWSMGGGGSLISAANNPSLKAAAVMAPWHSSTNFSSVTVPTLIFACENDRIAPVKEYALPIYDSMSLNAKQFLEICGGSHSCACSGNSNQALIGMKGVAWMKRFMDNDTRYSQFACENPNSTAVCDFRTANCS [HotPETase] | 0 | 0 | 0 | 0.045 ± 0.032 | 0 | 0 | 0 | 0 | 0 | 0 | 0 | 0 | 0 | 0.0125 ± 0.0033 | 0.00555 ± 0.0078 | 0 | 0 | 0 | 0 | 0 | 0.00798 ± 0.003 | 0 | 0 | 0
